B1: PI3KC2α^ΔN+ΔPX−C2 WT (mouse PI3KC2α amino acids 377–1,400) [mouse] / GST-distal C2 (PI3KC2α amino acids 1,561–1,686) [mouse] (parent complex)
chain 1: VQNDEVAAFCQSIMKLKTKFPYTDHCTNPGYLLSPVTVQRNMCGENASVKVSIEIEGLQLPVTFTCDVSSTVEIIIMQALCWVHDDLNQVDVGSYILKVCGQEEVLQNNHCLGSHEHIQNCRKWDTEIKLQLLTLSAMCQNLARTAEDDEAPVDLNKYLYQIEKPYKEVMTRHPVEELLDSYHYQVELALQTENQHRAVDQVIKAVRKICSALDGVETPSVTEAVKKLKRAVNLPRNKSADVTSLSGSDTRKNSTKGSLNPENPVQVSMDHLTTAIYDLLRLHANSSRCSTACPRGSRNIKEAWTATEQLQFTVYAAHGISSNWVSNYEKYYLICSLSHNGKDLFKPIQSKKVGTYKNFFYLIKWDELIIFPIQISQLPLESVLHLTLFGVLNQSSGSSPDSNKQRKGPEALGKVSLTLFDFKRFLTCGTKLLYLWTSSHTNSIPGAIPKKSYVMERIVLQVDFPSPAFDIIYTSPQIDRNIIQQDKLETLESDIKGKLLDIIHRDSSFGLSKEDKVFLWENRYYCLKHPNCLPKILASAPNWKWANLAKTYSLLHQWPPLCPLAALELLDAKFADQEVRSLAVSWMEAISDDELADLLPQFVQALKYEIYLNSSLVRFLLSRALGNIQIAHSLYWLLKDALHDTHFGSRYEHVLGALLSVGGKGLREELSKQMKLVQLLGGVAEKVRQASGSTRQVVLQKSMERVQSFFLRNKCRLPLKPSLVAKELNIKSCSFFSSNAMPLKVTMVNADPLGEEINVMFKVGEDLRQDMLALQMIKIMDKIWLKEGLDLRMVIFRCLSTGRDRGMVELVPASDTLRKIQVEYGVTGSFKDKPLAEWLRKYNPSEEEYEKASENFIYSCAGCCVATYVLGICDRHNDNIMLRSTGHMFHIDFGKFLGHAQMFGSFKRDRAPFVLTSDMAYVINGGEKPTIRFQLFVDLCCQAYNLIRKQTNLFLNLLSLMIPSGLPELTSIQDLKYVRDALQPQTTDAEATIFFTRLIESSLGSIATKFNFFIHNLAQLRFSG
chain 2: GAVKLSVSYRNGTLFIMVMHIKDLVTEDGADPNPYVKTYLLPDTHKTSKRKTKISRKTRNPTFNEMLVYSGYSKETLRQRELQLSVLSAESLRENFFLGGITLPLKDFNLSKETVKWYQLTAATYL

Variants of: B1
Experiment: GST pull-down, SDS-PAGE with Coomassie Blue staining, quantified with ImageJ; n = 3; binding of WT set to 100%; parent: 100; read off a plot

Variant | percent of parent
chain 1 K50A, chain 1 W82A, chain 1 D85A, chain 1 D86A | ~42%

Source: article PMC8930771, “Structural basis of phosphatidylinositol 3-kinase C2α function” (Nature Structural & Molecular Biology, 2022)
